Results from PMC12431652.

Molecular target: Tripartite Motif Protein 28 (TRIM28), endogenous in HEK293T cells (UniProt Q13263)
Test: co-immunoprecipitation (anti-FLAG IP, western blot band quantification)
Settings: for percent of parent (rel. (PIV2-V = 100)): HEK293T cells transfected for 24 hours, n = 3, parent: 100, read off a plot

Chain of UniProt Q13263 (Q13263 whole entry): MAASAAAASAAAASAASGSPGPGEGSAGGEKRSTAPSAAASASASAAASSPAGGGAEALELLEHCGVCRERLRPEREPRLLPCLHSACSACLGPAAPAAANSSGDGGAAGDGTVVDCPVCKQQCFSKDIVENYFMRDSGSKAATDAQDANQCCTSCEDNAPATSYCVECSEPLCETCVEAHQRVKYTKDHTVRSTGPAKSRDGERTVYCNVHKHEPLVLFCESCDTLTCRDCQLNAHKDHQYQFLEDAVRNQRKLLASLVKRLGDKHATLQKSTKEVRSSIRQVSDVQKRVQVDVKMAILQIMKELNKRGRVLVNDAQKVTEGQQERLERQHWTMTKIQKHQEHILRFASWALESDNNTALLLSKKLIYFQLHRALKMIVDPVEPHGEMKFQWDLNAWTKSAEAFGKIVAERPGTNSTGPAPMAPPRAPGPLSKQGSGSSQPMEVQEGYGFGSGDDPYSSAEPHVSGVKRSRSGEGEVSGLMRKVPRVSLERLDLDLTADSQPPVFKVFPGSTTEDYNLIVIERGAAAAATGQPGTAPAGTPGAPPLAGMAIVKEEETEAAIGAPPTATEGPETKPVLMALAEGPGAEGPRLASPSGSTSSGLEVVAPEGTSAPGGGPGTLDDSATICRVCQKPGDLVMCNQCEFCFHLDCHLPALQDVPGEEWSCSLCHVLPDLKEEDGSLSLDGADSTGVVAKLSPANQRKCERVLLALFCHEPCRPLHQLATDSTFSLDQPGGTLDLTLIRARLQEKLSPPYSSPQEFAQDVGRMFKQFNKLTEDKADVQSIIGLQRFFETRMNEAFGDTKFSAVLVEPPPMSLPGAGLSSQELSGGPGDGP

Row | Substance | percent of parent (rel. (PIV2-V = 100)) | percent of parent (rel. (PIV5-V = 100)) (n = 3, parent: 100, read off a plot)
1 | FLAG-tagged full-length PIV2-V (pCMV7.1_3xFlag) (from UniProt P19847) F190T | 130 | –
2 | FLAG-tagged full-length PIV2-V (pCMV7.1_3xFlag) (from UniProt P19847) A181G | 110 | –
3 | FLAG-tagged full-length PIV5-V (pCMV7.1_3xFlag) (from UniProt P11207) Y175W | – | 310
4 | FLAG-tagged full-length PIV2-V (pCMV7.1_3xFlag) (from UniProt P19847) W178Y | 50 | –
5 | FLAG-tagged full-length PIV2-V (pCMV7.1_3xFlag) (from UniProt P19847) Q186E | 130 | –
